In patent US20170137467A1 (CHROMOTEK, published 2017):
Square brackets hold non-standard residues; d marks the D form. GABA = NCCCC(=O)O

T1: BC2T H9A
T1 construct: positional scanning library member
T1 peptide: Ac-PDRKAAVSAWQQ-NH2

T2: BC2T Q11A
T2 construct: positional scanning library member
T2 peptide: Ac-PDRKAAVSHWAQ-NH2

T3: BC2T S8V
T3 construct: positional scanning library member
T3 peptide: Ac-PDRKAAVVHWQQ-NH2

T4: BC2T H9V
T4 construct: positional scanning library member
T4 peptide: Ac-PDRKAAVSVWQQ-NH2

T5: BC2T Q11V
T5 construct: positional scanning library member
T5 peptide: Ac-PDRKAAVSHWVQ-NH2

T6: BC2T Q12V
T6 construct: positional scanning library member
T6 peptide: Ac-PDRKAAVSHWQV-NH2

T7: BC2T W10P
T7 construct: positional scanning library member
T7 peptide: Ac-PDRKAAVSHPQQ-NH2

T8: BC2T Q12W
T8 construct: positional scanning library member
T8 peptide: Ac-PDRKAAVSHWQW-NH2

T9: BC2T W10S
T9 construct: positional scanning library member
T9 peptide: Ac-PDRKAAVSHSQQ-NH2

T10: BC2T Q12S
T10 construct: positional scanning library member
T10 peptide: Ac-PDRKAAVSHWQS-NH2

T11: BC2T S8N
T11 construct: positional scanning library member
T11 peptide: Ac-PDRKAAVNHWQQ-NH2

T12: BC2T S8Q
T12 construct: positional scanning library member
T12 peptide: Ac-PDRKAAVQHWQQ-NH2

T13: BC2T H9Q
T13 construct: positional scanning library member
T13 peptide: Ac-PDRKAAVSQWQQ-NH2

T14: BC2T W10Y
T14 construct: positional scanning library member
T14 peptide: Ac-PDRKAAVSHYQQ-NH2

T15: BC2T S8C(Abu) (also: Abu described as gamma-amino butyric acid)
T15 construct: positional scanning library member
T15 peptide: Ac-PDRKAAV[GABA]HWQQ-NH2

T16: BC2T H9C(Abu) (SMILES …)
T16 construct: positional scanning library member
T16 peptide: Ac-PDRKAAVS[GABA]WQQ-NH2

T17: BC2T W10K
T17 construct: positional scanning library member
T17 peptide: Ac-PDRKAAVSHKQQ-NH2


Columns and labels:
Test in all cases: positional peptide library pulldown on immobilised Nb, LC-MS of supernatant; signal ratio to control GFP-Nb (1 = not captured, near 0 = captured)
[1] = biological target: T1, BC2T H9A
Excerpt: (§1) In total, 12 different BC2T libraries displaying all 20 proteinogenic amino acids in one single position of the peptide were used in immunoprecipitation experiments. […] The direct comparison with the GFP-Nb made it possible to determine the quantitative degree of peptide capture without the need of labeled standards. […] The more peptide was captured the more the value approximates 0. It was not possible to discriminate between isoleucine (I) and leucine (L) peptide versions since these peptides are isobaric.
(§2) To investigate the binding specificity of the BC2T and derived mutants peptide libraries for each amino acid position of the sequence […] (SEQ ID NO:4) were synthesized with acetyl and amide groups located at the N-termini or C-termini respectively (Intavis). […] Incubations were performed in 300 μl PBS/0.01% CHAPS for 1 h on a HulaMixer (Life Technologies). Subsequent to a centrifugation step 10 μl supernatant were analyzed in a LC-MS procedure. Peptides were separated using an UltiMate3000 RSLCnano System (Thermo Scientific), composed of a C18 PepMap100μ-Precolumn (300 μm×5 mm; particle size: 5 μm; pore size: 100 Å—Thermo Scientific) and a C18 analytical column (Acclaim Rapid Separation LC (RSLC) Column: 150 mm×5 mm; particle size: 2.2 μm; pore size: 100 Å—Thermo Scientific). A step gradient was applied starting at 8% and ending after 20 min at 30% eluent B (80% acetonitrile, 20% H₂O, 0.1% formic acid).

[2] = biological target: T2, BC2T Q11A
Excerpt: as §1, §2

[3] = biological target: T3, BC2T S8V
Excerpt: as §1, §2

[4] = biological target: T4, BC2T H9V
Excerpt: as §1, §2

[5] = biological target: T5, BC2T Q11V
Excerpt: as §1, §2

[6] = biological target: T6, BC2T Q12V
Excerpt: as §1, §2

[7] = biological target: T18, BC2T S8(I/L1) (N-terminal acetyl; C-terminal amide)
T18 construct: positional scanning library member; I or L not resolved
Excerpt: as §1, §2

[8] = biological target: T19, BC2T S8(I/L2) (N-terminal acetyl; C-terminal amide)
T19 construct: positional scanning library member; I or L not resolved
Excerpt: as §1, §2

[9] = biological target: T20, BC2T H9(I/L2) (N-terminal acetyl; C-terminal amide)
T20 construct: positional scanning library member; I or L not resolved
Excerpt: as §1, §2

[10] = biological target: T21, BC2T Q11(I/L2) (N-terminal acetyl; C-terminal amide)
T21 construct: positional scanning library member; I or L not resolved
Excerpt: as §1, §2

[11] = biological target: T7, BC2T W10P
Excerpt: as §1, §2

[12] = biological target: T8, BC2T Q12W
Excerpt: as §1, §2

[13] = biological target: T9, BC2T W10S
Excerpt: as §1, §2

[14] = biological target: T10, BC2T Q12S
Excerpt: as §1, §2

[15] = biological target: T11, BC2T S8N
Excerpt: as §1, §2

[16] = biological target: T12, BC2T S8Q
Excerpt: as §1, §2

[17] = biological target: T13, BC2T H9Q
Excerpt: as §1, §2

[18] = biological target: T14, BC2T W10Y
Excerpt: as §1, §2

[19] = biological target: T15, BC2T S8C(Abu)
Excerpt: as §1, §2

[20] = biological target: T16, BC2T H9C(Abu)
Excerpt: as §1, §2

[21] = biological target: T17, BC2T W10K
Excerpt: as §1, §2

| Binder | ratio [1] | ratio [2] | ratio [3] | ratio [4] | ratio [5] | ratio [6] | ratio [7] | ratio [8] | ratio [9] | ratio [10] | ratio [11] | ratio [12] | ratio [13] | ratio [14] | ratio [15] | ratio [16] | ratio [17] | ratio [18] | ratio [19] | ratio [20] | further results |
| --- | --- | --- | --- | --- | --- | --- | --- | --- | --- | --- | --- | --- | --- | --- | --- | --- | --- | --- | --- | --- | --- |
| BC2 nanobody (VHH, immobilised on beads in this assay; also called BC2-Nb; BC2 nanotrap (immobilised)) VHH: QVQLVESGGGLVQPGGSLTLSCTASGFTLDHYDIGWFRQAPGKEREGVSCINNSDDDTYYADSVKGRFTIFMDNAKDTVYLQMNSLKPEDTAIYYCAEARGCKRGRYEYDFWGQGTQVTVSS | 0.2 | 0.1 | 0.1 | 0.2 | 0.1 | 0.1 | 0.4 | 0.7 | 0.1 | 0.1 | 1.1 | 0.1 | 1.1 | 0.1 | 0.2 | 0.7 | 0.2 | 1 | 0 | 0.2 | ratio [21]: 1 |
| BC2-NbR106S (VHH, headlock mutant of BC2-Nb; immobilised on beads in this assay) VHH: QVQLVESGGGLVQPGGSLTLSCTASGFTLDHYDIGWFRQAPGKEREGVSCINNSDDDTYYADSVKGRFTIFMDNAKDTVYLQMNSLKPEDTAIYYCAEARGCKRGSYEYDFWGQGTQVTVSS | 0.5 | 0.4 | 0.3 | 0.6 | 0.2 | 0.2 | 0.6 | 0.9 | 0.3 | 0.4 | 1.1 | 0.3 | 1.1 | 0.2 | 0.7 | 0.9 | 0.4 | 1 | 0.1 | 0.5 | ratio [21]: 1.1 |
